Measured values from US20230277624A1 (ONCOSEC MEDICAL, published 2023).

Experiments:
[1] = target: T1, Recombinant mouse CTLA-4/human IgG1 chimera (R&D Systems) (mouse; human, UniProt P09793 36-162, limits assumed); assay: ELISA; mouse CTLA-4/human IgG1 chimera coated at 1 or 5 µg/mL, HEK293 conditioned medium (130 ng/mL), anti-mouse IgG-HRP, OD 450 nm
T1 construct: Bought reagent, immobilised in 96-well plates; also called recombinant mCTLA-4/Fc; recombinant CTLA4 protein; not shown: human IgG1 portion (Fc) of the bought chimera
Description: (§1) Plasmid encoded anti-CTLA4 scFv bound to recombinant CTLA4 protein. Transfection-derived secreted anti-CTLA4 (scFv) were evaluated for their binding capacity to CTLA-4. Recombinant mouse CTLA-4/human IgG1 chimera (R&D Systems) were immobilized in 96-well plates (1 or 5 μg/mL, or […]) for 18 hr at room temperature. Wells were washed three times with 0.1% Tween in PBS and blocked with 1% BSA in PBS. Conditioned medium from HEK293 cells transfected with 9H10-scFv (168 ng/mL) or 9D9-scFv (130 ng/mL) was added to the wells, and incubated for 2 h at room temperature. Wells were washed three times, and anti-mouse IgG-horseradish peroxidase (Jackson ImmunoResearch, 0.2 μg/mL) were added and incubated for 1.5 hours at room temperature. Wells were again washed three times, developed with HRP Substrate Reagent (R&D Systems) and stopped with Stop Solution, 2N sulfuric acid (R&D Systems). Optical density of each well was measured at 450 nm.

[2] = target: T1, Recombinant mouse CTLA-4/human IgG1 …; assay: ELISA; mouse CTLA-4/human IgG1 chimera coated at 1 or 5 µg/mL, HEK293 conditioned medium (168 ng/mL), anti-mouse IgG-HRP, OD 450 nm
Description: as §1

Row | Binder | binding result [1] | binding result [2]
1 | Igκ-HA-9D9 VLC-Linker-9D9 VHC-Linker-mIgG1 Fc domain (anti-CTLA-4 scFv) (Fc fusion, Secreted into the conditioned medium of transfected HEK293 cells (130 ng/mL) and used as such; also called 9D9-scFv; plasmid encoded anti-CTLA4 scFv) scFv: YPYDVPDYAGAQPARSDIVMTQTTLSLPVSLGDQASISCRSSQSIVHSNGNTYLEWYLQKPGQSPKLLIYKVSNRFSGVPDRFSGSGSGTDFTLKISRVEAEDLGVYYCFQGSHVPYTFGGGTKLEIKRADAAPTVSGSGGGSGGGSGGGSEAKLQESGPVLVKPGASVKMSCKASGYTFTDYYMNWVKQSHGKSLEWIGVINPYNGDTSYNQKFKGKATLTVDKSSSTAYMELNSLTSEDSAVYYCARYYGSWFAYWGQGTLITVSTAKTTPPSVYPLAPVDSSGSGGCKPCICTVPEVSSVFIFPPKPKDVLTITLTPKVTCVVVDISKDDPEVQFSWFVDDVEVHTAQTQPREEQFNSTFRSVSELPIMHQDWLNGKEFKCRVNSAAFPAPIEKTISKTKGRPKAPQVYTIPPPKEQMAKDKVSLTCMITDFFPEDITVEWQWNGQPAENYKNTQPIMDTDGSYFVYSKLNVQKSNWEAGNTFTCSVLHEGLHNHHTEKSLSHSPGK | binds | 
2 | Igκ-HA-9H10 VLC-Linker-9H10 VHC-Linker-mIgG1 Fc domain (anti-CTLA-4 scFv) (Fc fusion, Secreted into the conditioned medium of transfected HEK293 cells (168 ng/mL) and used as such; also called 9H10-scFv; plasmid encoded anti-CTLA4 scFv) scFv: YPYDVPDYAGAQPARSDIVMTQSPSSLAVSVGEKVTISCKSSQSLLYGSSHYLAWYQQKVGQSPKLLIYWASTRHTGIPDRFIGSGSGTDFTLSLSSVQAEDMADYFCQQYFSTPWTFGAGTRVEIKSGSGGGSGGGSGGGSQVQLLQSESELVKPGASVKLSCKTSGYTFTDYYIHWVKQKPGQGLEWIGLINPNNDGTNYNQKFQGKATLTADKSSSTAYMELNSLTFDDSVIYFCARASSRLRMARTTSDYYAMDYWGQGIQVTVSSVDSSGSGGCKPCICTVPEVSSVFIFPPKPKDVLTITLTPKVTCVVVDISKDDPEVQFSWFVDDVEVHTAQTQPREEQFNSTFRSVSELPIMHQDWLNGKEFKCRVNSAAFPAPIEKTISKTKGRPKAPQVYTIPPPKEQMAKDKVSLTCMITDFFPEDITVEWQWNGQPAENYKNTQPIMDTDGSYFVYSKLNVQKSNWEAGNTFTCSVLHEGLHNHHTEKSLSHSPGK |  | binds
